According to patent EP0574512B1:

Legend:
[1] = biological target: HIV-1 envelope gp120/gp41 complex (HIV-1); test: cell-based or functional assay
[2] = biological target: MHC class II antigen on the Raji B cell line; test: cell-based or functional assay

Q: With CD4:ζ chimeric receptor as the substance, how does the mean effector to target ratio for 50% release (51Cr release cytolysis by CTL) (effector to target ratio) [1] read?
A: Its mean effector to target ratio for 50% release (51Cr release cytolysis by CTL) (effector to target ratio) is 1.9.

Q: What about the cytolysis (51Cr release) [2] of the same substance?
A: The cytolysis (51Cr release) was 5 % cytolysis.
